According to patent publication US20100240774A1, “USE OF HYDROPHOBIN POLYPEPTIDES AS PENETRATION ENHANCERS” (BASF SE, priority 2007, published 2010):

B1: hydrophobin A: fusion hydrophobin, SEQ ID NO: 20 from WO2007/14897 and herein (yaad-Xa-dewA-his) (protein)
chain: MAQTGTERVKRGMAEMQKGGVIMDVINAEQAKIAEEAGAVAVMALERVPADIRAAGGVARMADPTIVEEVMNAVSIPVMAKARIGHIVEARVLEAMGVDYIDESEVLTPADEEFHLNKNEYTVPFVCGCRDLGEATRRIAEGASMLRTKGEPGTGNIVEAVRHMRKVNAQVRKVVAMSEDELMTEAKNLGAPYELLLQIKKDGKLPVVNFAAGGVATPADAALMMQLGADGVFVGSGIFKSDNPAKFAKAIVEATTHFTDYKLIAELSKELGTAMKGIEISNLLPEQRMQERGWRSIEGRMRFIVSLLAFTAAATATALPASAAKNAKLATSAAFAKQAEGTTCNVGSIACCNSPAETNNDSLLSGLLGAGLLNGLSGNTGSACAKASLIDQLGLLALVDHTEEGPVCKNIVACCPEGTTNCVAVDNAGAGTKAEGSHHHHHH
modifications: basf-yaad-Xa-dewA-his fusion of Bacillus subtilis yaaD and N-terminal factor Xa proteinase cleavage site and Aspergillus nidulans hydrophobin dewA and his6
B2: hydrophobin B: fusion hydrophobin, SEQ ID NO: 26 from WO2007/14897; SEQ ID NO: 36 herein (yaad40-Xa-dewA-his) (protein)
chain: MAQTGTERVKRGMAEMQKGGVIMDVINAEQAKIAEEAGAVIEGRMRFIVSLLAFTAAATATALPASAAKNAKLATSAAFAKQAEGTTCNVGSIACCNSPAETNNDSLLSGLLGAGLLNGLSGNTGSACAKASLIDQLGLLALVDHTEEGPVCKNIVACCPEGTTNCVAVDNAGAGTKAEGSHHHHHH
modifications: fusion protein yaad40-Xa-dewA-his

Key:
[1] = test system: NHDF (normal human dermal fibroblast) cultures; test: antioxidative capacity (DCFH fluorescence after H2O2 stress) in NHDF cultures; type: cell-based; settings: 24 h treatment, H2O2-induced radicals, protein concentration 0.001%, three independent runs, effect seen in two of three runs
From the text: The reference substances used were vitamin E (alpha-tocopheryl acetate), vitamin C (Mg ascorbyl phosphate) and quercetin. The test cells used were normal dermal connective tissue cells (fibroblasts) since these produced good signal strengths in the evaluation method. To ascertain the antioxidative properties of the solutions, the NHDF (normal human dermal fibroblast) cultures were sown out on 48-well culture vessels and cultivated until the culture surface was completely covered. The investigations were then carried out with these random cultures. Firstly, the cultures were treated for 24 h with the test solutions. […] The plates containing the cells were inserted into a fluorescence reader and the measurement was started with an introductory phase without stress. […] Low fluorescence thus indicates high antioxidative capacity. […] The y axis here represents the oxidative stress in the cells as the fluorescence which is emitted when free radicals react with the intracellular dye DCFH. […] All fluorescence values were corrected with the protein contents of the cultures following conclusion of the measurements (ascertained with Coomassie stain). This compensates for fluctuations in the cell number, which would also cause fluctuations in the fluorescence (on account of the varying amount of dye). […]

[2] = skin penetration of lactic acid: pH of pigskin after tape stripping; type: in vitro ADME, pig; settings: for pH of the skin in the lower skin layers (after stripping) versus control without hydrophobin: hydrophobin coating and subsequent lactic acid treatment; for pH 1x stripping / pH 2x stripping / pH 3x stripping / pH without stripping: pigskin pretreated with 100 μl 0.1% hydrophobin 1.5 hours, then 15% strength lactic acid 10 minutes; for pH 1x stripping: after 1 Corneofix strip; for pH 2x stripping: after 2 Corneofix strips; for pH 3x stripping: after 3 Corneofix strips; for pH without stripping: mean of triple measurements
Method: • 1. Preparation of a 1% strength solution of hydrophobin A and B in Millipore water Dissolution of the hydrophobin by vigorous stirring on a magnetic stirrer at 900 rpm for 45 minutes. • 2. Preparation of 1 ml of a ready-to-use hydrophobin solution: • 800 μl Millipore water +100 μl 10-fold buffer (500 mM Tris, 10 mM CaCl2, pH 8) +100 μl hydrophobin solution
This corresponds to a 0.1% strength hydrophobin solution in 50 mM Tris 1 mM CaCl2 and pH 8
• 1. Frozen and dehaired pigskin (not blanched) was defrosted at room temperature. Marking of the application fields measuring ca. 2 cm×2 cm Application of the following solutions (stripping): • control (without solution)
• 2. Incubation of the solutions for 1.5 hours at RT
In order to remove any buffer salts present, all of the application fields were rinsed with 2×500 μl of Millipore water and dabbed with a paper towel. • 3. Application of in each case 100 μl of 15% strength lactic acid to all application fields
Incubation of the solutions for 10 minutes at room temperature
Removal of the excess lactic acid using a paper towel
Measurement of the pH of the pigskin on the respective application fields. Triple measurements were carried out and the mean was used. The water present after a pH measurement was dabbed off using a paper towel. A skin pH meter PH 905 from Courage & Khazaka was used.
Removal of the uppermost loose cell layer using a Corneofix adhesive strip from Courage & Khazaka
Renewed measurement of the pH
Overall, a Corneofix adhesive strip was used 3 times and the pH measured thereafter.

Molecule | oxidative stress / antioxidative potential (DCFH fluorescence) [1] | pH of the skin in the lower skin layers (after stripping) versus control without hydrophobin [2] | pH 1x stripping [2] | pH 2x stripping [2] | pH 3x stripping [2] | pH without stripping [2]
CC(=O)Oc1c(C)c(C)c2c(c1C)CCC(C)(CCC[C@H](C)CCC[C@H](C)CCCC(C)C)O2 (stereo partly drawn) [Tocopheryl acetate, alpha-tocopheryl acetate] | no antioxidative potential |  |  |  |  | 
B1 |  | lower pH | 3.08 | 3.39 | 3.63 | 2.62
B2 |  | lower pH | 2.89 | 3.08 | 3.26 | 2.64
